Data from patent US20250066503A1, “CELL INJURY INDUCING THERAPEUTIC DRUG FOR USE IN CANCER THERAPY” (CHUGAI SEIYAKU KABUSHIKI KAISHA, priority 2016, published 2025).
Positions count from the first letter of the chain named.

B1: H0610-G1dh/none-Hi-Kn010G3/L0015-k0 (antibody, V domains shown)
VH: QVQLVQSGAEVKKPGASVKVSCKASGYTFTDYEMHWIRQPPGQGLEWIGAIDGKTPDTAYSQKFKGRVTLTADKSTSTAYMELSSLTSEDTAVYYCTRFYSYTYWGQGTLVTVSS
VL: DIVMTQSPLSLPVTPGEPASISCRSSQSPVHSNRNTYLHWYQQKPGQAPRLLIYKVSNRFSGVPDRFSGSGSGTDFTLKISRVEAEDVGVYYCGQGTQVPYTFGQGTKLEIK
notes: one-arm
B2: GCH056-G1dh/none-Hi-Kn010G3/L0215-k0 (antibody, V domains shown)
VH: B1 VH with K19T, Q43E, K54E, K65E
VL: B1 VL with S28P, L38I
notes: one-arm
B3: H0610-G1dh/none-Hi-Kn010G3/L0041-k0 (antibody, V domains shown)
VH: B1 VH
VL: B1 VL with P29L, S32L
notes: one-arm
B4: H0610-G1dh/none-Hi-Kn010G3/L0075-k0 (antibody, V domains shown)
VH: B1 VH
VL: B1 VL with P29L, N35W
notes: one-arm
B5: H0610-G1dh/none-Hi-Kn010G3/L0016-k0 (antibody, V domains shown)
VH: B1 VH
VL: B1 VL with P29V
notes: one-arm
B6: GCH054-G1dh/none-Hi-Kn010G3/L0262-k0 (antibody, V domains shown)
VH: B1 VH with K19T, Q43E, K54E, Q62E
VL: B1 VL with S28P, G94A
notes: one-arm
B7: H0610-G1dh/none-Hi-Kn010G3/L0007-k0 (antibody, V domains shown)
VH: B1 VH
VL: B1 VL with S25T, P29L
notes: one-arm
B8: H0610-G1dh/none-Hi-Kn010G3/L0046-k0 (antibody, V domains shown)
VH: B1 VH
VL: B1 VL with P29L, S32V
notes: one-arm
B9: H0610-G1dh/none-Hi-Kn010G3/L0069-k0 (antibody, V domains shown)
VH: B1 VH
VL: B1 VL with P29L, N35M
notes: one-arm
B10: GCH065-G1dh/none-Hi-Kn010G3/L0272-k0 (antibody, V domains shown)
VH: B1 VH with K19T, Q43E, K54P, Q62E
VL: B1 VL with S28P, P29L, N35Q
notes: one-arm
B11: H0610-G1dh/none-Hi-Kn010G3/L0045-k0 (antibody, V domains shown)
VH: B1 VH
VL: B1 VL with P29L, S32Q
notes: one-arm
B12: GCH056-G1dh/none-Hi-Kn010G3/L0262-k0 (antibody, V domains shown)
VH: B1 VH with K19T, Q43E, K54E, K65E
VL: B1 VL with S28P, G94A
notes: one-arm
B13: GCH054-G1dh/none-Hi-Kn010G3/L0200-k0 (antibody, V domains shown)
VH: B1 VH with K19T, Q43E, K54E, Q62E
VL: B1 VL with S25P
notes: one-arm
B14: GCH057-G1dh/none-Hi-Kn010G3/L0215-k0 (antibody, V domains shown)
VH: B1 VH with K19T, Q43E, K54E, Q62E, K65E
VL: B1 VL with S28P, L38I
notes: one-arm
B15: H0610-G1dh/none-Hi-Kn010G3/L0064-k0 (antibody, V domains shown)
VH: B1 VH
VL: B1 VL with P29L, N35F
notes: one-arm
B16: H0610-G1dh/none-Hi-Kn010G3/L0039-k0 (antibody, V domains shown)
VH: B1 VH
VL: B1 VL with P29L, S32H
notes: one-arm
B17: GCH060-G1dh/none-Hi-Kn010G3/L0200-k0 (antibody, V domains shown)
VH: B1 VH with K19T, T30E, Q43E, K54E, K65E, S88E
VL: B1 VL with S25P
notes: one-arm
B18: H0610-G1dh/none-Hi-Kn010G3/L0013-k0 (antibody, V domains shown)
VH: B1 VH
VL: B1 VL with P29I
notes: one-arm
B19: GCH065-G1dh/none-Hi-Kn010G3/L0262-k0 (antibody, V domains shown)
VH: B1 VH with K19T, Q43E, K54P, Q62E
VL: B1 VL with S28P, G94A
notes: one-arm
B20: H0610-G1dh/none-Hi-Kn010G3/L0032-k0 (antibody, V domains shown)
VH: B1 VH
VL: B1 VL with P29L, H31R
notes: one-arm
B21: GCH054-G1dh/none-Hi-Kn010G3/TR01L015-k0 (antibody, V domains shown)
VH: B1 VH with K19T, Q43E, K54E, Q62E
VL: B1 VL with Q42L, A48S, R50Q
notes: one-arm
B22: H0610-G1dh/none-Hi-Kn010G3/L0006-k0 (antibody, V domains shown)
VH: B1 VH
VL: B1 VL with S25P, P29L
notes: one-arm
B23: H0610-G1dh/none-Hi-Kn010G3/L0038-k0 (antibody, V domains shown)
VH: B1 VH
VL: B1 VL with P29L, S32F
notes: one-arm
B24: GCH094-G1dh/none-Hi-Kn010G3/L0246-k0 (antibody, V domains shown)
VH: B1 VH with K19T, I37V, P40A, Q43E, I48M, K54E, Q62E
VL: B1 VL with L38I, H39Q, G94S
notes: one-arm
B25: H0610-G1dh/none-Hi-Kn010G3/L0066-k0 (antibody, V domains shown)
VH: B1 VH
VL: B1 VL with P29L, N35H
notes: one-arm
B26: GCH094-G1dh/none-Hi-Kn010G3/L0272-k0 (antibody, V domains shown)
VH: B1 VH with K19T, I37V, P40A, Q43E, I48M, K54E, Q62E
VL: B1 VL with S28P, P29L, N35Q
notes: one-arm
B27: GCH055-G1dh/none-Hi-Kn010G3/L0200-k0 (antibody, V domains shown)
VH: B1 VH with K19T, Q43E, K54E, Q62D
VL: B1 VL with S25P
notes: one-arm
B28: GCH094-G1dh/none-Hi-Kn010G3/L0271-k0 (antibody, V domains shown)
VH: B1 VH with K19T, I37V, P40A, Q43E, I48M, K54E, Q62E
VL: B1 VL with S28P, N35Q
notes: one-arm
B29: H0610-G1dh/none-Hi-Kn010G3/L0008-k0 (antibody, V domains shown)
VH: B1 VH
VL: B1 VL with S25V, P29L
notes: one-arm
B30: GCH054-G1dh/none-Hi-Kn010G3/L0249-k0 (antibody, V domains shown)
VH: B1 VH with K19T, Q43E, K54E, Q62E
VL: B1 VL with S25P, L38I, H39Q, G94S
notes: one-arm
B31: H0610-G1dh/none-Hi-Kn010G3/L0063-k0 (antibody, V domains shown)
VH: B1 VH
VL: B1 VL with P29L, N35E
notes: one-arm
B32: GCH054-G1dh/none-Hi-Kn010G3/TR01L016-k0 (antibody, V domains shown)
VH: B1 VH with K19T, Q43E, K54E, Q62E
VL: B1 VL with Q42L, A48S, R50Q, G94Y
notes: one-arm
B33: H0610-G1dh/none-Hi-Kn010G3/L0042-k0 (antibody, V domains shown)
VH: B1 VH
VL: B1 VL with P29L, S32M
notes: one-arm
B34: GCH054-G1dh/none-Hi-Kn010G3/L0215-k0 (antibody, V domains shown)
VH: B1 VH with K19T, Q43E, K54E, Q62E
VL: B1 VL with S28P, L38I
notes: one-arm
B35: H0610-G1dh/none-Hi-Kn010G3/L0044-k0 (antibody, V domains shown)
VH: B1 VH
VL: B1 VL with P29L, S32P
notes: one-arm
B36: H0610-G1dh/none-Hi-Kn010G3/L0047-k0 (antibody, V domains shown)
VH: B1 VH
VL: B1 VL with P29L, S32W
notes: one-arm
B37: H0610-G1dh/none-Hi-Kn010G3/L0062-k0 (antibody, V domains shown)
VH: B1 VH
VL: B1 VL with P29L, N35D
notes: one-arm
B38: H0610-G1dh/none-Hi-Kn010G3/L0012-k0 (antibody, V domains shown)
VH: B1 VH
VL: B1 VL with P29F
notes: one-arm
B39: H0610-G1dh/none-Hi-Kn010G3/L0003-k0 (antibody, V domains shown)
VH: B1 VH
VL: B1 VL with S25I, P29L
notes: one-arm
B40: GCH054-G1dh/none-Hi-Kn010G3/TR01L018-k0 (antibody, V domains shown)
VH: B1 VH with K19T, Q43E, K54E, Q62E
VL: B1 VL with R24Q, S25A, Q27E, Q42L, A48S, R50Q
notes: one-arm
B41: H0610-G1dh/none-Hi-Kn010G3/L0043-k0 (antibody, V domains shown)
VH: B1 VH
VL: B1 VL with P29L, S32N
notes: one-arm
B42: H0610-G1dh/none-Hi-Kn010G3/L0014-k0 (antibody, V domains shown)
VH: B1 VH
VL: B1 VL with P29M
notes: one-arm
B43: GCH055-G1dh/none-Hi-Kn010G3/L0215-k0 (antibody, V domains shown)
VH: B1 VH with K19T, Q43E, K54E, Q62D
VL: B1 VL with S28P, L38I
notes: one-arm
B44: GCH054-G1dh/none-Hi-Kn010G3/L0246-k0 (antibody, V domains shown)
VH: B1 VH with K19T, Q43E, K54E, Q62E
VL: B1 VL with L38I, H39Q, G94S
notes: one-arm
B45: H0610-G1dh/none-Hi-Kn010G3/L0009-k0 (antibody, V domains shown)
VH: B1 VH
VL: B1 VL with S26P, P29L
notes: one-arm
B46: GCH094-G1dh/none-Hi-Kn010G3/L0270-k0 (antibody, V domains shown)
VH: B1 VH with K19T, I37V, P40A, Q43E, I48M, K54E, Q62E
VL: B1 VL with P29L, N35Q
notes: one-arm
B47: H0610-G1dh/none-Hi-Kn010G3/L0002-k0 (antibody, V domains shown)
VH: B1 VH
VL: B1 VL with S25A, P29L
notes: one-arm
B48: H0610-G1dh/none-Hi-Kn010G3/L0065-k0 (antibody, V domains shown)
VH: B1 VH
VL: B1 VL with P29L, N35G
notes: one-arm
B49: GCH054-G1dh/none-Hi-Kn010G3/TR01L019-k0 (antibody, V domains shown)
VH: B1 VH with K19T, Q43E, K54E, Q62E
VL: B1 VL with R24Q, S25A, Q27E, Q42L, A48S, R50Q, G94Y
notes: one-arm

Biological target: T1, human GPC3 (human, UniProt P51654 25-563)
T1 construct: range 25-563; soluble analyte; also called soluble human GPC3; glypican 3
T1 sequence (P51654 25-563 limits assumed): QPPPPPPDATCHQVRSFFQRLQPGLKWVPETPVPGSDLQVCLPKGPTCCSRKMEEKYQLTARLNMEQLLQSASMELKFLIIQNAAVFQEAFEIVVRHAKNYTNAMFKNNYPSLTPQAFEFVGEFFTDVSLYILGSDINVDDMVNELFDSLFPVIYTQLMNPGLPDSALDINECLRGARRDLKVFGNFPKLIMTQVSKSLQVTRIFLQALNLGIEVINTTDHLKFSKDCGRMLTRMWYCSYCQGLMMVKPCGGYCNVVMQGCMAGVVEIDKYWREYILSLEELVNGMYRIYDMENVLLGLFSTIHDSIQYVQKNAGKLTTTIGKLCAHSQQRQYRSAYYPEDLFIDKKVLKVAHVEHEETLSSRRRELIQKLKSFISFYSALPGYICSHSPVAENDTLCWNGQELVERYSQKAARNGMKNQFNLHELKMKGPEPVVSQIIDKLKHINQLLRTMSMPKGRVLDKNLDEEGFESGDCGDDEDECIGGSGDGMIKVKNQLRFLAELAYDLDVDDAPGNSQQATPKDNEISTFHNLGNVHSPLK
Experiment: SPR

Row | Binder | Kd
1 | B1 | 1.31 nM
2 | B2 | 1.59 nM
3 | B3 | 4.85 nM
4 | B4 | 2.85 nM
5 | B5 | 4.44 nM
6 | B6 | 0.000525 nM
7 | B7 | 4.39 nM
8 | B8 | 5.45 nM
9 | B9 | 5.32 nM
10 | B10 | 0.393 nM
11 | B11 | 4.66 nM
12 | B12 | 0.0119 nM
13 | B13 | 1.18 nM
14 | B14 | 1.83 nM
15 | B15 | 3.37 nM
16 | B16 | 3.41 nM
17 | B17 | 1.34 nM
18 | B18 | 3.35 nM
19 | B19 | 0.0118 nM
20 | B20 | 3.72 nM
21 | B21 | 2.45 nM
22 | B22 | 3.04 nM
23 | B23 | 2.75 nM
24 | B24 | 0.00412 nM
25 | B25 | 4.2 nM

Row | Binder | Kd
26 | B26 | 2.1 nM
27 | B27 | 1.13 nM
28 | B28 | 0.692 nM
29 | B29 | 3.3 nM
30 | B30 | 0.00361 nM
31 | B31 | 6.03 nM
32 | B32 | 0.763 nM
33 | B33 | 4.27 nM
34 | B34 | 1.62 nM
35 | B35 | 4.57 nM
36 | B36 | 2.23 nM
37 | B37 | 5.28 nM
38 | B38 | 1.55 nM
39 | B39 | 4.01 nM
40 | B40 | 2.59 nM
41 | B41 | 5.14 nM
42 | B42 | 1.82 nM
43 | B43 | 1.52 nM
44 | B44 | 0.0315 nM
45 | B45 | 2.99 nM
46 | B46 | 3.6 nM
47 | B47 | 4.43 nM
48 | B48 | 4.79 nM
49 | B49 | 0.871 nM
